First the molecules themselves.
B1: F1*; the commonest letter at each place (parent)
chain: GAGACCGCAACTGAAAAGTTGTTATCACTTGTCGTAAGACACTTTGGATGGGTTGAAGTTCTGCACGTAGAAGCAAAAGGC

Variants of B1 are the subject of this data set. Kind of data set: fraction ligated after 30 min (ligated reads / total reads); higher = more ligase activity. As to conditions: with F1*sub RNA substrate (template-directed ligation), 42 °C. Summed up:
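The ligase ribozyme variants were produced by PCR amplification of oligo-pool templates, T7 transcription and purification on gel. Their ligated and unligated forms were gel-separated, then reverse transcribed with barcoded primers before MiSeq sequencing. Core bases were filtered at a quality of ≥20, and fraction ligated per variant was ligated reads over total reads.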
On to GAGACCGCAACTGAAAAGTTGTTATCACTTGACGTAAGACACTTTGGATGGGTTGAGGTTCTGCACGTAGAAGCAAAAGGC, for which the fraction ligated came to 0.859.
For GAGACCGCAACTGAAAAGTTGTTATCACTTGACGTAAGACACTTTGGATGGGTTGATGTTCTGCACGTAGAAGCAAAAGGC, the fraction ligated is 0.821.
The value for GAGACCGCAACTGAAAAGTTGTTATCACTTGACGTAAGACACTTTGGATGGGTTGACGTTCTGCACGTAGAAGCAAAAGGC was 0.821; that for GAGACCGCAACTGAAAAGTTGTTATCACTTGACGTAAGACACTTTGGCTGGGTTGAAGTTCTGCACGTAGAAGCAAAAGGC was 0.727; that for GAGACCGCAACTGAAAAGTTGTTATCACTTGACGTAAGACACTTTGGTTGGGTTGAAGTTCTGCACGTAGAAGCAAAAGGC was 0.0494.
Turning to GAGACCGCAACTGAAAAGTTGTTATCACTTGACGTAAGACACTTTGGGTGGGTTGAAGTTCTGCACGTAGAAGCAAAAGGC, the fraction ligated was determined as 0.749.
Turning to GAGACCGCAACTGAAAAGTTGTTATCACTTGACGTAAGAAACTTTGGATGGGTTGAAGTTCTGCACGTAGAAGCAAAAGGC, the fraction ligated is 0.834.
On to GAGACCGCAACTGAAAAGTTGTTATCACTTGACGTAAGAGACTTTGGATGGGTTGAAGTTCTGCACGTAGAAGCAAAAGGC, for which the fraction ligated is 0.834.
As to GAGACCGCAACTGAAAAGTTGTTATCACTTGACGTAAGATACTTTGGATGGGTTGAAGTTCTGCACGTAGAAGCAAAAGGC, the fraction ligated was 0.806.
Consider GAGACCGCAACTGAAAAGTTGTTATCACTTTTCGTAAGACACTTAGGATGGGTTGAAGTTCTGCACGTAGAAGCAAAAGGC, for which the fraction ligated worked out at 0.387.
With GAGACCGCAACTGAAAAGTTGTTATCACTTTTCGTAAGACACTTCGGATGGGTTGAAGTTCTGCACGTAGAAGCAAAAGGC, the fraction ligated stood at 0.116.
GAGACCGCAACTGAAAAGTTGTTATCACTTTTCGTAAGACACTTGGGATGGGTTGAAGTTCTGCACGTAGAAGCAAAAGGC: the fraction ligated came out at 0.0586.
Consider GAGACCGCAACTGAAAAGTTGTTATCACTTTTCGTAAGACACTTTGGACGGGTTGAAGTTCTGCACGTAGAAGCAAAAGGC, for which the fraction ligated was 0.0332.
Consider GAGACCGCAACTGAAAAGTTGTTATCACTTTTCGTAAGACACTTTGGAAGGGTTGAAGTTCTGCACGTAGAAGCAAAAGGC, for which the fraction ligated turned out to be 0.146.
For GAGACCGCAACTGAAAAGTTGTTATCACTTTTCGTAAGACACTTTGGAGGGGTTGAAGTTCTGCACGTAGAAGCAAAAGGC, the fraction ligated was determined as 0.19.
The value for GAGACCGCAACTGAAAAGTTGTTATCACTTGACGTACGACACTTTGGATGGGTTGAAGTTCTGCACGTAGAAGCAAAAGGC was 0.849; that for GAGACCGCAACTGAAAAGTTGTTATCACTTGACGTATGACACTTTGGATGGGTTGAAGTTCTGCACGTAGAAGCAAAAGGC was 0.82; that for GAGACCGCAACTGAAAAGTTGTTATCACTTGACGTAGGACACTTTGGATGGGTTGAAGTTCTGCACGTAGAAGCAAAAGGC was 0.838.
In the case of GAGACCGCAACTGAAAAGTTGTTATCACTTGACGTAAGACACTTTGGATGGGTTGAAGTTCTGCACGTAGAAGCAAAAGGC, the fraction ligated is 0.842.
For GAGACCGCAACTGAAAAGTTGTTATCACTTGACGTAAGACACTTTGGATGGGTTGTAGTTCTGCACGTAGAAGCAAAAGGC, the fraction ligated amounted to 0.82.
As to GAGACCGCAACTGAAAAGTTGTTATCACTTGACGTAAGACACTTTGGATGGGTTGGAGTTCTGCACGTAGAAGCAAAAGGC, the fraction ligated worked out at 0.808.
As for GAGACCGCAACTGAAAAGTTGTTATCACTTGACGTAAGACACTTTGGATGGGTTGCAGTTCTGCACGTAGAAGCAAAAGGC, the fraction ligated worked out at 0.574.
As for GAGACCGCAACTGAAAAGTTGTTATCACTTGACGTAAGACTCTTTGGATGGGTTGAAGTTCTGCACGTAGAAGCAAAAGGC, the fraction ligated came to 0.825.
Turning to GAGACCGCAACTGAAAAGTTGTTATCACTTGACGTAAGACGCTTTGGATGGGTTGAAGTTCTGCACGTAGAAGCAAAAGGC, the fraction ligated was 0.808.
Take GAGACCGCAACTGAAAAGTTGTTATCACTTGACGTAAGACCCTTTGGATGGGTTGAAGTTCTGCACGTAGAAGCAAAAGGC: the fraction ligated was determined as 0.8.
GAGACCGCAACTGAAAAGTTGTTATCACTTGAAGTAAGACACTTTGGATGGGTTGAAGTTCTGCACGTAGAAGCAAAAGGC: the fraction ligated is 0.811.
The value for GAGACCGCAACTGAAAAGTTGTTATCACTTGATGTAAGACACTTTGGATGGGTTGAAGTTCTGCACGTAGAAGCAAAAGGC was 0.847; that for GAGACCGCAACTGAAAAGTTGTTATCACTTGAGGTAAGACACTTTGGATGGGTTGAAGTTCTGCACGTAGAAGCAAAAGGC was 0.823.
On to GAGACCGCAACTGAAAAGTTGTTATCACTTGACGTAAGGCACTTTGGATGGGTTGAAGTTCTGCACGTAGAAGCAAAAGGC, for which the fraction ligated came to 0.832.
GAGACCGCAACTGAAAAGTTGTTATCACTTGACGTAAGCCACTTTGGATGGGTTGAAGTTCTGCACGTAGAAGCAAAAGGC: the fraction ligated is 0.837.
On to GAGACCGCAACTGAAAAGTTGTTATCACTTGACGTAAGTCACTTTGGATGGGTTGAAGTTCTGCACGTAGAAGCAAAAGGC, for which the fraction ligated was found to be 0.827.
The value for GAGACCGCAACTGAAAAGTTGTTATCACTTGACGTGAGACACTTTGGATGGGTTGAAGTTCTGCACGTAGAAGCAAAAGGC was 0.794; that for GAGACCGCAACTGAAAAGTTGTTATCACTTGACGTTAGACACTTTGGATGGGTTGAAGTTCTGCACGTAGAAGCAAAAGGC was 0.852.
Take GAGACCGCAACTGAAAAGTTGTTATCACTTGACGTCAGACACTTTGGATGGGTTGAAGTTCTGCACGTAGAAGCAAAAGGC: the fraction ligated was determined as 0.815.
